The target of one experiment is T1, LdASS (V5His-LdASS^WT) (Leishmania donovani, UniProt H9BG20).
T1 construct: full length (419 residues predicted, 46 kDa), N-terminal V5 and His6 tags kept; overexpressed in L. donovani amastigotes, Ni-NTA pull-down, assayed on beads; tetramer inferred from other ASS; CBZ34226.1 (BPK282A1) stated identical
The experiment in a line: malachite green Pi release, pyrophosphatase-coupled. The format is biochemical. Particulars: read-out: % inhibition at 1 mM.

Experiment [1] addresses V5His-LdASS^G128S, recombinant Leishmania donovani argininosuccinate synthase G128S with N-terminal V5 epitope and hexahistidine tags (Leishmania donovani). The experiment in a line: ELISA; plates coated with 100 µL of 10 µg/mL LdIMPDH or LdASS variant in PBS, 4°C, 16 h; blocked with 2% BSA; purified LdPEX5 at 0.01-400 nM; bound LdPEX5 detected with anti-LdPEX5 polyclonal antisera; apparent Kd. (In general: ELISA stands for enzyme-linked immunosorbent assay.)

For experiment [2], the target named is T2, LdPEX5, PTS1 receptor protein peroxin 5 of Leishmania donovani, recombinant (Leishmania donovani, UniProt A0A3S7X906 1-625).
T2 construct: Peroxin 5 (LdPEX5), the PTS1 receptor of Leishmania donovani; construct not described here; also called receptor peroxin 5; glycosomal PTS1 targeting receptor protein
T2 sequence (looked up): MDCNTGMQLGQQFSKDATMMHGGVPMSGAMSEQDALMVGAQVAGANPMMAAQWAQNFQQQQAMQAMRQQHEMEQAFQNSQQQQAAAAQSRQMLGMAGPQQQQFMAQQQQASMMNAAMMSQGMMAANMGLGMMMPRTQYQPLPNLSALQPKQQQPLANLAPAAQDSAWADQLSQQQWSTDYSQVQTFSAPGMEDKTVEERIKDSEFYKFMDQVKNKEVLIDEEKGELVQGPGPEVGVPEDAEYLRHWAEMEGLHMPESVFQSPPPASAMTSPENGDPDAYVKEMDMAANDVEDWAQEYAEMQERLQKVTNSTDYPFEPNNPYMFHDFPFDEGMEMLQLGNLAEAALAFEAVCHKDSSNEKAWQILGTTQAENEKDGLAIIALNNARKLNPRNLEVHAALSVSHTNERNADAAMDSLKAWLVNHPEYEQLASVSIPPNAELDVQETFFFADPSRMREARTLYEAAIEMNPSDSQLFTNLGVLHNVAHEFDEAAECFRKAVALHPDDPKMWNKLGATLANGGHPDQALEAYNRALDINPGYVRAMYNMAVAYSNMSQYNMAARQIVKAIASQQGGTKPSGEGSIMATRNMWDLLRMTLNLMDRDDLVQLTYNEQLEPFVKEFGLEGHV
Described as above. The following applies: both partners purified.

Usually inhibition stands for the share of the control response that was lost under treatment.

In the case of `CC(N)(CC(=O)O)C(=O)O` (racemic) [MDLA, methyl-D-L-Aspartic acid], the inhibition at 1000 µM at LdASS (V5His-LdASS^WT) is approximately 60%.

B1: LdPEX5, PTS1 receptor protein peroxin 5 of Leishmania donovani, recombinant (receptor)
chain: T2 sequence (looked up)
B1: the Kd in experiment [1] amounted to 5 nM.

B2: LdIMPDH, glycosomal PTS1 protein inosine monophosphate dehydrogenase of Leishmania donovani, recombinant (enzyme, UniProt P21620 1-514, looked up)
chain: MATNNANYRIKTIKDGCTAEELFRGDGLTYNDFIILPGFIDFGAADVNISGQFTKRIRLHIPIVSSPMDTITENEMAKTMALMGGVGVLHNNCTVERQVEMVKSVKAYRNGFISKPKSVPPNTPISNIIRIKEEKGISGILVTENGDPHGKLLGIVCTKDIDYVKNKDTPVSAVMTRREKMTVERAPIQLEEAMDVLNRSRYGYLPIVNENDEVVNLCSRRDAVRARDYPHSTLDKSGRLICAAATSTRPEDKRRVAALADVGVDVLVLDSSQGNTIYQIAFIKWVKSTYPHLEVVAGNVVTQDQAKNLIDAGADGIRIGMGSGSICITQEVLACGRPQGTAVYKVAQYCASRGVPCTADGGLRQVGDICKALAIGANCAMLGGMLSGTTETPGEYFFKGGVRLKVYRGMGSLEAMSQGKESGKRYLSENEAVQVAQGVSGNVVDKGSAAKLIAYVSKGLQQSAQDIGEISFDAIREKMYAGQVLFSRRSPTAQGEGGVHSLHSYEKKLFAAKM
notes: Inosine monophosphate dehydrogenase (LdIMPDH) of Leishmania donovani, with the C-terminal tripeptide PTS1 signal Ala-Lys-Met; construct not described here
Consider B2, for which, in experiment [2], the Kd is approximately 5 nM.

B3: V5His-LdASS^WT, recombinant Leishmania donovani argininosuccinate synthase with N-terminal V5 epitope and hexahistidine tags (enzyme, UniProt H9BG20 1-418, looked up)
chain: MPATATEVVCGKKPRVVLAYSGGLDTSVIIPWLKENYDYEVIACCANVGQGAGEIDGLEEKAKKSGASKLYLLDLREEYVTDYIFPTLKAGATYEGKYMLGTSHARPLIAKHLVEVAHKEGAVAICHGATGKGNDQVRFELAVMALDPSLKCVAPWREWNIKSREDAIDYAEAHGVPVPCTKSDLYSRDRNLWHISHEGMDLEDPANEPAYARLLRLCNTVEKAPDEAEYVAVQFEKGIPVAVNGRKMSSVELVEELNALGGKHAIGIEDIVEDRLVGMKSRGVYETPAGTILYKALDMLESLCLDRDTQSFKRQSAVRFSELVYDGKWFTPLRESMSAMFDQMAETVTGEATLKLYKGNLVPAGAQSPYSLYNKNIASFGDSKHLYNHHDAEGFIRLFGLPLRVRSMMKAKEMPSSL
notes: Argininosuccinate synthase (LdASS) of Leishmania donovani strain Ld1S2D; predicted protein identical to L. infantum LinJ.23.0300 and L. donovani BPK282A1 CBZ34226.1; C-terminal Ser-Ser-Leu (PTS1) left free; Made from the pCRT7 plasmid with primers F3/R3 and ligated into pEXP-5-NT/TOPO; also called rLdASS WT, N-terminal tagged; pEXP5-V5HisLdASS^WT; source: E. coli BL21 (DE3) pLysS, purified …
Regarding B3, the Kd in experiment [2] was approximately 5 nM.
